# From the RNAGym collection of RNA variant scans (doi:10.1073/pnas.2313332121)
# B1: TPR t1 (parent)
# chain: GACCAAUCUGCCCUCAGAGCUCGAGAACAUCUUCGGAUGCAGAGGAGGCAGGCUUCGGUGGCGCGAUAGCGCCAACGUCCUCAACCUCCAAUGCAUCCCACCACAUGAUGAUGCCUGAAGAGCCUUGGUUUUUUG
# Variants of: B1
# Test: polymerase ribozyme fitness, log enrichment relative to wild type (log ratio); higher = more active; in vitro selection for triplet polymerase activity
# How it was run: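 Frozen incubation at −7 °C formed the core of a single, triplicate in vitro selection round applied to PCR-built, transcribed mutant libraries of each subunit of a heterodimeric triplet polymerase ribozyme. Extended constructs were gel-excised, captured with streptavidin beads and amplified by RT-PCR, and input and output libraries were Illumina-sequenced with a filter of ≥10 input reads and ≥1 read per output. Fitness is the logarithm of genotype enrichment relative to wild-type enrichment, with inverse-variance-weighted replicate averaging, and the logarithm is base 2.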
row,Variant,polymerase ribozyme fitness (log ratio)
1,GACCAAUGUGCCGUCUGAGCUCGAGAACAUCUUCGGAUGCAGAGGAGGAAGGCUUCGGUGGCGCGAUAGCGCCAACGUCCUCAACCUCCAAUGCAUCCCACCACAUGAUGAUGCCUGAAGAGCCUUGGCUUUUUG [C8G C13G A16U C49A U129C],-0.993
2,GACCAAUCUGCCCUCAGAGCUCGAGAACAUCUUCGGAUGCAGAGGAGGUAGGCUUCCGUGGCGCGAUAGCGCCAACGUCCUCAACCUCCAAUGCAUCCCACCACAUGAUGAUGCCUGAAGAGCCUUGGUUUUUUG [C49U G57C],-0.696
3,GACCAAUCUGCCCUCAGAGCUCGAGAACAUCUUCGGAUGCAGAGGAGGCAGGCUUCGGUGGCGCGAUAGCGCCAACGUCCUCAACCUCCAAUGCAUCCCACCACAUGAUGAUGCCUGAAGAGCCUUGGUUUUUGG [U134G],0.625
4,GACCAAUGUGCCCUCAGAGCUCGAGAACAUCUUCGGAUGCCGAGGAGGCAGGCUUCGGUGGCGCGAUAGCGCCAACGUCCUCAACCUCCAAUGCAUCCCACCACAUGAUGAUGCCUGAAGAGCCUUGGUUUUUUG [C8G A41C],-1.28
5,GACCAAUCUGCCCUCAGCGCUCGAGAACAUCUUCGGAUGCAGAGGAGGCCGGCUUCGAUGGCGCGAUAGCGCCAACGUCCUCAACCUCCAAUGCAUUCCACCACAUGAUGAUGCCUGAAGAGCCUUGGUUUUUUG [A18C A50C G58A C97U],-5.7
6,GACCAAUCUGCCCUCAGAGCUCGAGAACAUCUUGGGAUGCAGAGGAGGCAGGCUUAGGUGGCGCGAUAGCGCCAACGUCCUCAACCUCCAAUGCAUCCCACCACACGAUGAUGCCUGAAGAGCCUUGGUUUUUUG [C34G C56A U106C],-6
7,GACCAAUCUGCCCUCAGAGCUAGAGAACAUCUUUGUAUGCAGAGGAGGCAGGCUUCGGUGCCGCGAUAGCGCCAACGUCCUCAACCUCCAAUGCAUCCCACCACAUGAUGUUGCCUGAAGAGCCUUGGUUUUUUG [C22A C34U G36U G61C A111U],-6.58
8,GACCAAUCUGCCCUCAGAGCUCGAGAACAUCUUAGGAUGCAGAGCAGGCAGGAUUCGGUUGCGCGAUAGCGCCAACGUCCUCAACCUCCAAUGCAUCCCACCACAUGAUGAUGCCUGAAGAGCCUUGGUUUUUUG [C34A G45C C53A G60U],-1.66
9,GACCAAUCUGCCCUCAGAGCUCGAGAACAUCUUCGCAUGCAGAGGAGGCAGGCUUCGGUGGCGCGAUAGCGCCAACGUCCUGAACCUCCAAUGCAUCCCACCACAUGAUGAUGCCUGAAGAGCCUCGGUUUUUUG [G36C C82G U126C],-2.57
10,GACCAAUUUGCCCUCAGAGCUCGAGAACAUCUUCGGAUGCAGAGGAGGCAGGCUUCGGUGGCGUGAUAGCGACAACGUCCUCAACCUCCAAUGCAUCCCACCACAUGAAGAUGCCUGAAGAGCCUUGGUUUUUUG [C8U C64U C72A U109A],-4.83
11,GACCAAUCUGCCCUCAGAGCUCGAGAACAUCUUCGGAUGUAGAGGAGGCAGGGUUCGGUGGCGCGAUAGCGCCAGCGUCCUCAACCUCCAAUGCAUCCCACCACAUGAUGAUGCCUAAAGAGCCUUGGUUUUUUG [C40U C53G A75G G117A],-2.56
12,GACCAAUCUGCCCUCAGAGAUCGAGAACAUCUUCGGAUGCAGAGGAGGCAGGAUUCGGUGGCGCGAUAGCGCCAACGGCCUGAACCUCCAAUGCAUCCCACCACAUGAUGAAGCCUGAAGAGCCUUGGUUUUUUG [C20A C53A U78G C82G U112A],-0.686
13,GACCAAUCUGCCCUCAGAGCUCGAGAACAUCUUCGGAUGCAGAGGAGGCAUGCUUCGCUGGCGCGAUAGCGCCAACGUCCUCAACAUCCAAUGCAUCCCACCAUAUGAUGAUGCCUGAAGAGCCUUGGUUUUUUG [G51U G58C C86A C104U],-3.76
14,GACCAAUCUGCCCUCAGAGCUCGAGAACAUCUUCGGAUGCAGAGGAGGCAGGCUUCCGUGGCGCGAUAGCGCCAACGUCCUCAACCUCCAAUGCAUCCCACCACAUGAUGAUGCCAGAAGAGCCUUGGUUUUUUG [G57C U116A],-2.89
15,GACCAAUCUGCCCUCAGAGCUCGAGAACAUCUUCGGAUGCAGAGGAGGCAGGCUUCGGUGGCGCGAUAGCGCCAACGUCCUCAACCUCCAAUGCAUCCCACCACAUGAUGAUGCCUGAAGAGCGUUGGUUUUUUG [C124G],1.59
16,GACCAAUGUACCCUGAGAGCUCGAGAACAUCUUCGGAUGCAGAGGAGGCAGGCUUCGGUGGCGCGAUAGCGCCAACCUCCUCAACCUCCAAUGCAUCCCACCACAUGAUAAUGCCUGAAGAGCCUUGGUUUUUUG [C8G G10A C15G G77C G110A],-3.26
17,GACCAAUCUGCCCUCAGAGCUCGAGAACAUCUUCGGAUGCAGAGGAGGCAGGCUUCGGUGGCGCGAUAGAGCCAACGUCCUCAACCUCCAAUGCAUCCCACCACAUGAUGAUGCCAGAACAGCCUUGGUUUUUUG [C70A U116A G120C],-1.85
18,GACCAAUCUGCCCUCAGAGCUCGAGAACAUCUUCGGAUGCAGAGGAGGCAGGCUUCGGUGGCGCGAUAGCGCCAAGGUCCUCAACCUCCAAUGCAUCCCACCACAUGAUGAUUCCUGAAGAGCCUUGGUUUUUUG [C76G G113U],-4.13
19,GACCAAUCUGCCCUCAGAGCUCGAGAACAUCUUCUGAUGCAGAGGAGGCAGGCUUUGGUGGCGCGAUAGCGCCAACGUCCUCAACCUCCAAUGCAUCCCACCACAUGAUGAUGCCUGAAGGGCCUUGGUUUUUUG [G35U C56U A121G],-4.8
20,GACCAAUCUGCCCUCAGAGCUCGAGAACAUCUUCGGAUGCAGAGGAGUCAGGCUUCGGUGGCGCGAUAGCGCCAACGUCCUCAACCUCCAAUGCAUCCCACCACAUGAAGAUGCCUGAAGAGCCUUGGUUUUUUG [G48U U109A],-5.53
21,GACCAAUCUGCCCUUCGAGCUCGAGAACAUCUUCGGAUGCAGAGGAGGCAGGCUUCGGUGGCGCGAUAGCGCCAACGUCCUCAACCUCCAAUCCAUCCCACCACAUGAUGAUGCCUGAAGAGUCUCGGUUUUUUG [C15U A16C G93C C123U U126C],-2.73

row,Variant,polymerase ribozyme fitness (log ratio)
1,GACCAAUCUGCCCUCAGAGCUCGAGAACAUCUUCGGAUGCAGAGGAGGCAGGCUUCGGUGACGCGAUAGCGCCAACGUCCUCAACCUCCGAUGCAUCCCACCACAUGAUGAUGCCUGAAGAGCCUUGGUUUUUUG [G61A A90G],-0.68
2,GACCAAUCUGCCCUCAGAGCUCGAGAACAUCUUCGGAUGCAGAGGAGGAAGGCUUCGGUGGCGCGAUAGCGCCAACGUCCUCAACCUCCAAUCCAUCCCACCACAUGAUUAUGCCUGAAGAGCCUUGGUUUCUUG [C49A G93C G110U U132C],-2.27
3,GACCAAUCCGCCCUCAGAGCUCGAGAACAUCUUCGGAUGCAGAGGAGGCAGGCUUCGGUGGCGCGAUAGCGCCAACGUCCUCAACAUCCAAUGCAUCCAACCACAUGAUGAUGCCUGAAGAGCCUUGGUUUUUUG [U9C C86A C99A],-5.49
4,GACCAAUCUGCCCUCAGAGCUCGAGAACAUCUUCGGUUGCAGAGGAUGCAGGCUUCGGUAGCGCGAUAGCGCCAACGUCCUCAACCUCCAAUGCAUCCCACCACAUGAUAAUGCCUGAAGAGCCUUGGUUUUUUG [A37U G47U G60A G110A],-3.74
5,GACCCAUCUGCCAUCAGAGCUCGAGAACAUCUUAGGAUGCAGAGGAGGCAGGCUUCGGUGGCGCGAUAGCGCCAACGUCCUCUACCUCCAAUGCAUCCCACCACAUGGUGAUGCCUGAAGAGCAUUGGUUUUUUG [A5C C13A C34A A83U A108G C124A],-5.47
6,GACCAAUCUGCCCUCAGAGCUCGAGAACAUCUUCGGAUGCAGAGGAGGCAGGCUUUGGUGGCGCGAUAGCGCCAACGUCCUCAACCUCCAAUGCAUCCCACCACAUGAUGAUGCCUGAACAGCCUUGGUUUUUUG [C56U G120C],0.793
7,GACCAAUCUGCCCUCAGAGCUCGAGAACAUCUUCGGAUGCAGAGGAGGGAGGCUUCGGUGGCGCGAUAGCGCCAACGUCCUCAACCUCCAAUGCAUCCCACCACAUGAUGAGGCCUGAAGAGCCUUGGGUUUUUG [C49G U112G U129G],-0.483
8,GACCAAUCUGCCCUCAGAGCUCGAGAACAUCUUCGGAUGCAGAGGAGGCAGGCUUCGGCGGCGCGAUAGCGCCAACGUCCUCAACCUCCAAUGCAUCCCACCACAUGAUGAUGCCUGAAGAGUCUUGGUUUUUUG [U59C C123U],1.16
9,GACCAAUCUGCCCUCAGAGCUCGAGAACAUCUUCGGAUGAAGAGGAGGCAGGCUUCGGUGGCGCGAUAGCGCCAACGUCCUCAACCUCGAAUGCAUCCCACCACAUGAUGAUGCCUGAAGAGCCUUGGUUUUUUG [C40A C89G],-2.81
10,GACCAAUCUGCCCUCAGAGCUCGAGAACAUCUUCGGAUGCAGAGGAGGCAAGAUUCGGUGACGCGAUAGCGCUAACGUCCUCAACCUCCAAUGCAUCCCACCACAUGAUGAUGCCUGAAGAGCCUUGGUUUUUUG [G51A C53A G61A C73U],-2.68
11,GUCCAUUCUGCCCUCAGAGCUCGAGAACAUCUUCGGAUGCAGAGGAGGCAGGCUUCUGUGGCGCGAUAGCGCCAACGUCCUCAACCUCCAAUGCAUCCCACCACAUGAUGAUGCCUGAACAGCCUUGGUUUUUUG [A2U A6U G57U G120C],-4.53
12,GACCAAUCUGCCCUCAGAGCUCGAGAACAUCUUCGGAUGCAGAGGAGGCAGGCUUCGGUGGCGCGAUAGCGCCAACGUCCUCAACCUCCAAUCCAUCCCACCACAUGAUGUUGCCUGAAGAGCCUUGGUUUUUUG [G93C A111U],-5.12
13,GACCAAUCUGCCCUCAGAGCUCGAGAACAUCUUCGGAUGCAGAGGAGGCAGGCUUCGGUGGCGCGAUAGCUCCAACGUCCUCAACCUCCAAUGCAUCCGACCACAUGAUGAUGCCUGAAGAGCCUUGGUUUUUUG [G71U C99G],-8.12
14,GACCAAUCUGCCCUCAGAGCUCGAGACCAUCUUCGGAUGCAGAGGAGGCAGGAUUCGGUGGCGCGAUAGCGCCAACGUCCUUAACCUCCAAUGCAUCCCACCACAUGAUGAUGCCUGAAGAGCCUUGGUUUUUUG [A27C C53A C82U],-4.15
15,GACCAAUCUGCCCUCAGAGCUCGAGAACAUCUUCGGAUGCAAAGGAGACAGGCUUCGGUGGCGCGAUACCGCCAACGUCCUCAACCUCCAAUGCAUCCCACCACAUGAUGAUGCCUGAAGAGCCUUGGUUUUUUG [G42A G48A G69C],-4.05
16,GACCAAUCUGCCCUCAGAGCUCGAGAACAUCUUCGGUUGCAGUGGAGGCAGGCUUCGGUGGCGCGAUAGCGCCAACGUCCUCAACCUCCAAUCCAUCCCACCACAUGAUGAUGCCAGAAGAGCCUUGGUUUUUUG [A37U A43U G93C U116A],-6.51
17,GACCAAUCUGCCUUCAGAGCUCGAGAACAUCUUCGGAUGCAGAGGAGGCAGGCUUCGGUGGCGCGAUAGCGCCAACGUCCUCAACCUCCAAUGCAUUCCACCACAUGAUGAUGCCUGAAGAGCCUUGGUUUUUUG [C13U C97U],-1.03
18,GACCAAUGUGCCCUCGGAGCUCGAGAACAUCUUCGGAUGCAGAGGAGGCAGGCUUGGGUGGCGCGAUAGCGCCAACGUCCUCCACCUCCAAUGCAUCCCACCACAUGAUGAUGCCUGAAGAGCCUUGGUUUUUUG [C8G A16G C56G A83C],0.0154
19,GACCAAUCUGCCCGCAGAGCUCGAGAACAUCUUCGGAUGGAGAGGAGGCAGGCUUCGGUGGCGCGAUAGCGCAAACGUCCUCAACCUCCAAUGCAUCCCACCACUUGAUGAUGCCUGAAGAGCCUUGGUUUUUUG [U14G C40G C73A A105U],-4.25
20,GACCAAUCUGCCCUCAGAGCUCGAGAACAUCUUCGGAUGCAGAGGAGGCAGGCUUAGGUGGUGCGAUAGCGCCAACGUCCUCAAUCUCCAAUGCAUCCCACCACAUGAUGAUGCCUGAAGAGCCUUGGUUUUUUG [C56A C62U C85U],-1.64
21,GACCAAUCUGCCCUCAGAGCUCGAGAACAUCUUCGGUUGCAGAGGAGGCAGGCUUCGGUGGCGCGAUAGAGCCAACGUCCUCAACCUCCAAUGCAUCCUACCACAUGAUGAUGCCUGAAGAGCCUUGGUUUUUUG [A37U C70A C99U],-5.64
